Measured values as given in the supplement of paper PMC10266784.

B1: library; numbered along this chain (parent)
chain: MAAAAAAAAEQQSSNGPVKKSMREKAVERRSVNKEHNSNFKAGYIPIDEDRLHKTGLRGRKGNLAICVIILLFILAVINLIITLVIWAVIRIGPNGCDSMEFHESGLLRFKQVSDMGVIHPLYKSTVGGRRNENLVITGNNQPIVFQQGTTKLSVENNKTSITSDIGMQFFDPRTQNILFSTDYETHEFHLPSGVKSLNVQKASTERITSNATSDLNIKVDGRAIVRGNEGVFIMGKTIEFHMGGNMELKAENSIILNGSVMVSTTRLPSSSSGDQLGSGDWVRYKLCMCADGTLFKVQVTSQNMGCQISDNPCGNTH

Variants of: B1
Experiment: SGCB cell-surface expression functional score (HA stain, bin4 vs bin1, normalised to synonymous) (log10 ratio); higher = more cell-surface SGCB (functional)
Procedure: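 Deep mutational scan of full-length human SGCB (YFP-SGCB-HA, NNN codon sublibraries A-F) delivered by lentivirus at low MOI into ADG-HEK293 cells stably expressing SGCA, SGCD and SGCG. YFP-positive cells were stained for surface HA on unpermeabilized cells and FACS-sorted into bins. The functional score is log10(frequency in high bin 4 / frequency in low bin 1), normalised per chunk so that synonymous variants have mean 0 and SD 0.5. Scores are the median over codons and over duplicate biological replicates; scores below -0.5 are called non-functional. Scale: negative means deleterious.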

SGCB cell-surface expression functional score (log10) of substitutions, site by site:
V118: C 0.74 | D -0.11 | Q -0.24 | M -0.05 | W 0.32 | A -0.02 | R -0.19 | I 0.32 | F -0.06 | T 0.29 | P -0.73 | N -0.97 | H -0.23 | K 0.64 | G -0.31 | Y -0.32 | L -0.05 | E -0.21 | S 0.19
F110: C -1.22 | M -0.98 | T -1.1 | S -1.18 | N -0.99 | V -0.47 | G -1.18 | H -0.19 | L -0.53 | R -1.05 | Y -0.99 | I -0.31 | A -1.33 | W -1.08 | E -1.42 | Q -1.06 | K -0.57 | D -1.65 | P -1.35
P121: I -0.16 | H -0.14 | G -0.47 | N 0.38 | V 0.5 | S 0.12 | F 0.33 | C 0.36 | T -0.36 | D -0.76 | W -0.71 | K -0.78 | R -1 | E -1.17 | Q -0.72 | A -0.17 | M -0.6 | Y -0.96 | L 0.04
K124: A -0.41 | G 0.08 | V 0.39 | Y 0.18 | L 0.07 | N 0.4 | P 0.61 | F -0.08 | R 0.3 | W -0.36 | M -0.6 | C 0.21 | Q 0.27 | E -0.5 | I 0.1 | H -0.35 | S 0.11 | D -0.66 | T 0.31
M116: R -1.55 | V -1.02 | F 0.29 | T -0.8 | N -1.13 | A -1.24 | Q -1.26 | H -1.7 | D -0.59 | E -1.47 | I -1.03 | Y -1.63 | P -1.45 | K -1.21 | W -1.47 | S -1.38 | G -1.48 | L 0.08 | C -1.02
G117: I -1.22 | W -1.14 | M -0.46 | S -0.38 | V -1.36 | R -0.86 | N 0.02 | T -0.96 | P -1.21 | F -1.46 | L -1.42 | K -1.66 | Q -1.06 | Y -1.35 | H -0.9 | A -0.7 | D -0.32 | C -0.28 | E -0.94
V113: Q -0.79 | R -0.07 | A -0.4 | L -0.01 | I 0.04 | D -0.21 | Y -0.42 | P 0.22 | E -0.5 | F -0.38 | H -0.84 | G -0.67 | C -0.61 | T -0.1 | M -0.22 | K 0.32 | S -0.27 | N -0.49 | W -1.16
K111: D -0.84 | C 0.01 | V -0.57 | N -0.45 | M -0.31 | G -1.08 | I -0.61 | T -0.37 | L -0.35 | F -0.85 | R -0.25 | P -1.47 | E -0.76 | S -1.07 | Q -1 | Y -0.7 | H -0.03 | W 0.03 | A -1.04
S114: F -0.89 | R -1.39 | C 0.01 | V -0.22 | W -0.55 | I 0.12 | M -0.25 | N -0.49 | T -0.37 | Y -1.47 | L -1.15 | G -0.7 | P -0.77 | A 0.55 | E -0.49 | D -1.53 | Q -1.66 | H -1.62 | K -1.22
H120: D -0.59 | Y 0.03 | R 0.35 | L 0.39 | K -0.13 | S 0.28 | E -0.09 | A -0.12 | C 0.35 | V -0.04 | W 0.14 | G -1.08 | Q -0.03 | F 0.08 | T 0.44 | P -1.27 | I 0.16 | N 0.06 | M -0.63
R109: W 0.09 | S -0.09 | T 0.26 | V 0.1 | Y -0.17
L122: E 0.35 | G 0.45 | K -0.12 | W 0.1 | V -0.14 | Q 0.48 | C 0.06 | D 0.28 | T 0.13 | N -0.12 | Y 0.31 | R 0.49 | M 0.05 | H 0.55 | I 0.65 | A -0.03 | P -1.07 | S 0.31 | F -0.12
I119: D -0.97 | T -0.97 | E -1.16 | Q -1.26 | C -0.49 | H -1.49 | V -0.21 | N -1.15 | W -1.04 | F -1.3 | R -0.88 | Y -1.14 | L -0.19 | S -1.47 | K -1.36 | M 0.58 | P -0.94 | A -0.49 | G -0.96
Q112: I 0.03 | M -0.17 | K -0.1 | F -0.97 | E -0.38 | Y -0.7 | D -0.16 | L -0.73 | G -0.59 | R 0.07 | A -0.21 | N -1.32 | S -0.17 | C -0.81 | W -0.83 | H 0.02 | T -0.79 | V -0.18 | P -1.14
Y123: W 0.33 | F 0.2 | R -0.37 | I -0.3 | N 0.64 | D -0.53 | G -0.11 | Q 0.06 | L 0.02 | H -0.35 | T -0.12 | P 0.1 | M -0.24 | K -0.02 | V -0.18 | S 0.68 | C 0.25 | A 0.29 | E 0.65
V127: D -1.79 | C 0.53 | A -0.57 | F -0.12 | E -0.65 | G -0.79
T126: K -0.52 | H 0.76 | N -0.36 | G -0.18 | E 0.37 | V -0.28 | F 0.32 | L -0.13 | S 0.02 | P -0.31 | A 0.13 | M 0.29 | I 0.24 | C 0.11 | D -0.63 | W 0.62 | R -0.36 | Q -0.75 | Y 0.74
S125: N -0.2 | C 0.13 | Y -0.79 | R -1.09 | V -0.88 | T -0.3 | I -1.02 | K -0.93 | E -0.08 | M 0.21 | H -0.37 | L -1.2 | A -0.08 | D 0.46 | P -0.99 | F -0.45 | G 0.56 | W -0.51 | Q -0.7
D115: H -0.53 | C -1.36 | V -0.75 | K -0.97 | I -0.89 | M -1.51 | F -1.29 | N -0.27 | E -0.54 | P -1.39 | T -1.39 | A -1.73 | R -1.16 | Q -0.98 | Y -0.03 | W -1.77 | L -1.17 | G -1.39 | S -1.55
